Test: label from the status in PepcDB records

VPLEARMKQFKDMLLERGVSAFSTWEKELHKIVFDPRYLLLNPKERKQVFDQYV
protein production: failed

MKKEKLFSLLRYIDNGSLECITSLFLITLSLTMPAIGLGNFGIQVIALSMIPLINVRFPVAALPLALVATVWLNAWADHLLLTGFIVYLAVEYATSRGRFALALILGVEWILIAYGVALERPLEAKDSPSLITEILLILVAAGTGAGRWKILSERKQRAITQQEIIKKIRTDIAHYLHDSMARSLAIMIVQSKLTELEPDPKKIQEKLNSIAKIGQEAVADLHQLVRHLVVEESAEKATAFGAWAAVSIHDTVNSAIQLLVDAGHVVSFDSRKKNYKLDHIAETAFALAFNEAVCNAIKHSPPKANVTIRITEKAQSLQILVMNPIGDWHANGESAIPGVGIGVESLTRRIRNIKGQVCVTSLQGYWKVVISLPLKCEDS
protein production: failed

KEKDTIAAEHKQEASVLLNLHRNKINYLIGETMARMTSLSIAIDRPVDIKKMQSILEKTFDSEPRFSGLYFLNAKGDVTASTTELKTKVNLADRSFFIKAKETKKTVISDSYSSRITGQPIFTICVPVLDSKRNVTDYLVAAIQIDYLKNLINLLSPDVYIEVVNQDGKMIFASGQASHAEDQKPVSGYLDDISWNMKVYPNPVTIEEL
protein production: not failed

MKPSCRPGAALEADRCPSFPDRSAATPHRGLAWAMAVVLIGGCATTRDIEQLQTTSQREPTNAQLKLKYMDERDRQVKDLLDGADRLRLIHDFDRAQVLLLQALRLDPGNERGRRIAAAIDVDRRNGAVLQEAERMMARGSYDGAAERVERVLAETPNDAGALRLYREISEKRRLQKQAAEEKNAAASIMRKPVSLQFRDANVRMVFEALSRTTGLSVIFDRDVRVDLKTTIFVSNASLEDTVDMILLQNQLAKKVLNANTVFIYPATPAKQQEYQDLKVRTFQLSNTDAKHIDTLLKNLLKIKEIVTDERANTVSIRATPETIRVAERMIAAQDLPEPEVMLEVEVLEVSRDRLTDLGIDWPNSFSLGTPSSASTWGALHHLTVNQLTASGLSVTANLKLTDTDANLLASPRIRTRNKEKAKILIGDKVPVISSSSVPSTSGPVYSQSIQYLDVGIKLEVEPQVYRDNDVGIKMSLEVSNITQIISSSNAQTGLSSLAYQIGTRNASTTLRLKDGETQILGGLIQDEDRDAANKVPGLGQLPVLGRLFSNHNGDHKKTEIVLQITPHIVRPQLAADADTREIWSGTDSTVRTEQLRLDPPGVAAPATPAAPAAPAAALPAPAAGVAVVSPGAVGGGTTGGEQTPKAAAPAAAGGVVPPNGAFGQPPAAPRTTPPPAMFGGRFMTTVPPPEGVVPPAPPAPAAAPAAVAAPAAAAPAAPAAGTAGPEAAAAVSPTEAAPPAPAPAAPYTPAPAAPAAAPPAASPPPIVPTPPSDMPSDNPLHPIPTGAY
protein production: failed

KAEAEQNWWEGPPQDLSVHLWYAGPMERAGAESILANRSDGTFLVRQRVKDAAEFAISIKYNVEVKHIKIMTAEGLYRITEKKAFRGLTELVEFYQQNSLKDCFKSLDTTLQFPFKEPEKRTISR
protein production: not failed

GMQGFFFNTRREIFKDKRVREALFYAFDFEWANKNLFFSQYKRTTSFFSNSIYASPPLPSPEEKALLAPYEKSLDERVFKEPYVVPRTDGVDVLGYNLRENLKYAQKLLESTGFSYKNMRLVDKNNKPFSFTLLLNSPAFERLALAFAKNLRVLGIEMKIQRVDLSQYVNRIKSYDFDMIVGVIGQSSFPGNEQRFYFGSLSAKEKGTRNYAGISSKAVDDLIEKIINAKDYKEQLAAIQAMDRVLLWGFYVIPHFYLP
protein production: failed

MINTMTLDNGVRIITEKMSTVRSVSIGIWVGTGSRYESAEENGISHFLEHMFFKGTNTRSAQEIAEFFDSIGGQVNAFTSKEYTCYYAKVLDDHAGQAIDTLSDMFFHSTFQKEELEKERKVVFEEIKMVDDTPDDIVHDLLSSATYGKHSLGYPILGTVETLNSFNEGMLRHYMDRFYTGDYVVISVAGNVHDELIDKIKETFSQVKPTTYNYQGEKPMFLPNRIVRKKETEQAHLCLGYPGLPIGDKDVYALVLLNNVLGGSMSSRLFQDIREKRGLCYSVFSYHSSFRDSGMLTIYAGTGHDQLDDLVYSIQETTSALAEKGLTEKELENGKEQLKGSLMLSLESTNSRMSRNGKNELLLKKHRSLDEMIEQINAVQKQDVSRLAKILLSASPSISLINANGELPKALIH
protein production: failed

MLDLFGYKRRKTSVAQIGDTPLGGDFPIRIQSMANVSTMDTQASVDQAARIIDAGADYVRFTAQGVREAVNLQHIHAGLCRLGYHIPLVADIHFSPKAAEEALLHVEKVRINPGNFVEMKSGGNLTEEEAFDLGHKAVRERFGSFVEDAKRLGRAIRIGVNHGSLSERMLTRYGDTAEGMVQSCMEYLDVCHEHEFDDVVISMKASNTLVMTAAVRLLVERMDAADMHYPLHIGVTEAGDGEDGRIKSAVGIGSLLADGIGDTIRVSLSEDPEHEIPVARKLLAYIEKRNGHPSVAVPQPDRYDRDKLRRQETYAVGDFIGSKHIPIVISDRRQGDDHFDTELLPDIVLGADGRYYREDMLLENIVFRSIRQDDLTDDCLQTIEAISDTVIILESVGINPVAEWRAMLHRLELAGCRCPVILHRRYDCTDLEDLQLQASADMGAILLEGRGNGLMITADKLPSVAVNHLAFGILQATR
protein production: failed

MLEKELSFADLSISLSELYEAMGYADAVPDEAVEKEVRGVLGRVEAVTSPRFCFFISGGELDESKDSLSVGDTCFSIGKIITRQLRGSESFAFFAATAGTGFERFQHTLQQEGDMVKVYIADAIGSVIAEKTADCMEIALDEYIRDRGWRHTNRFSPGYCGWHVSEQKKLFPLFPSAEPCGIRLTDSGLMLPIKSVSGVIGLGDGVRKLEYTCGLCTYDRCYRRKQRGLEHHHHHH
protein production: not failed

MNSVVDISWAKLAAFSLILLVPLAINARYRLGIAKDASVSVVRMTLQLVLIGVYLEYLFQLNSLIINLLWLAIMLVVGASSIAGKARLPKKPLMLPLLTGLVCGLFPLLIAITAGLVRPTPLYNAQYMIPLAGMLLGNSLSSNIIALQNLFSAFEERKSEYEAAISLGAAPKYASFPFVQEALRKSLAPTLASMTTMGLVTLPGMMTGQVLGGASPLVAIKYQLVIMLAIFVMMSVSVAITLEMTLSFVQTKEGRVTVKVRPVDGMKRGQ
protein production: failed

MIELLISILTYALISLQSFYRKMDRPAASTIGAALMLAFGVMSLKEAVRAIDYNTIMLLFGMMVLTAYLGIAGFFDWLASKIMGFSGNGKRLLFTIVFSSGFLSALFVNDTICVFMTPVVVRVALSAGISPIPLLIALATSANVGSAVTIIGNPQNMLIGLKSGIGFVQFTAKMLPVGVAGIFIVYSVIYVLYRGELGKLRNGKIEVNLNRRLAAKGLLTFALVLILFVTEFYPVSLSAFIGAAIMFAIGGVKPREALEKVDWGLLLLFCNLFIVMHGFEKSYGEKILSMLSFGESFADYLYFSLLTVAGSNLVSNVPFVMMVLPAAKGAAADFWLILAMASTFAGNLTLIGSVANLIVAESAERHGVHLSFFEYLKAGVPVTFATVLVGALLIYIT
protein production: failed

MELLKEYNPYLEYRDGELFIEGVSLKELAQTFGTPLYVYSSNFIKERFEAYRKAFPDALICYAVKANFNPHLVKLLGELGAGADIVSGGELYLAKKAGIPPERIVYAGVGKTEKELTDAVDSEILMFNVESRQELDVLNEIAGKLGKKARIAIRVNPDVDPKTHPYIATGMQKSKFGVDIREAQKEYEYASKLENLEIVGIHCHIGSQILDISPYREAVEKVVSLYESLTQKGFDIKYLDIGGGLGIKYKPEDKEPAPQDLADLLKDLLENVKAKIILEPGRSIMGNAGILITQVQFLKDKGSKHFIIVDAGMNDLIRPSIYNAYHHIIPVETKERKKVVADIVGPICETGDFLALDREIEEVQRGEYLAVLSAGAYGFAMSSHYNMRPRAAEVLVENGSVKLIRKRENYDYIVEPSLDI
protein production: not failed

MSLAWLISEFASVGDVTVRALRYYDKINLLKPSDYTEGGHRLYTKDDLYVLQQIQSFKHLGFSLGEIQNIILQRDIETEVFLRQMHFQREVLLAEQERIAKVLSHMDEMTKKFQKEERVNVALFSSFLQTFIWEKENKEGHHHHHH
protein production: not failed

MSQPPLLSGPGGRLLGAALLIGLLAGCGSVSTGNAGSGTVGTSTTSRADVMTFQPSSLPVSYVGETYNVQVGVTGGVGPYGYRLTAGTLPPGLKFAGGALSGTPTKAGSYSFAIQATDANLSTRVQEYTMNVDALPPLALKPTLPPGEIRGETRIPVTIQAPRAVRAARLSWDLGKDVQVTRVQPADAGSVVFWQQRGSVLTVDLGFRTVPRPDARIALITVKPAKAVTLKADALGYEARDGSGKMLVDKKRPGSEPVKPAEQPGDPKVDPKAADQKATDQKATDPKTVDPKTVTPADTVEGGPLPSPALPTPSLPPTLPPVTTPPANTPPVPTPTPPANQPAPAPAPQPAPAPQPTPPSGTGGALEHHHHHH
protein production: not failed

MAGKLDPYRRKRHFGATPEPEGAHGHHAKAGAKPAARASARGTHPLRFVIQEHHARRLHYDFRLELDGTLKSWAVPKGPSFDPSVKRLAVHVEDHPLEYASFEGQIPEGHYGAGSVVVWDEGTWTPDGGVAQAREGYRAGKLTFRLDGEKLHGGWALVRSGRQEGRQEQWLLIKERDDDARSMDEFDVVGERPGSVHDGAASARADAKNGSARGSRSGQREKSGTSAARHDDHRHDGHAGTPIDPSRIEGAVRAPLPEHVAPQLATLVDGPPTQGDWCYELKFDGYRILARISGKGARRHVKLMTREGRDWTAKLRAQRDALAALDVDAAWLDGEAVVLGKNGLPDFQALQNAFGGGHSDEITLFVFDLPYLDGYDLRDAPLTARRALLEPLFADSDPTRLRFSPDLGNDVASLIASACDTGLEGLIGKRAESRYRAGRSPAWIKLKCRRRQEFVIGGYTEPSGSRHGFGALLLGVHEPAADGKRRRGPGPLRYVGRVGTGFDTRMLDRLTPILRKHERDTMPFDPPPRERSRTPVHWIEPVLVAECEFAEWTGDGIVRQAAFIALREDKPAARIVREVPKHTETEVQMEQRQTTRHERHKPKGAARAERDTSDASDGKHPARSRGSRRAEADDTGPDQLGRVRISHPERVIDSHSGTRKIDLARYWQWVAPWLLRDLKGRPVSLVRAPGDISGELFFQKHAERREIPFVTQHEGLDPGHGPLLSLDSVDALLGAAQMGTIELHTWNAHASNIERPDRIVFDLDPDPALPWSAMIDAAQLVRGLLDELGLISFCKTSGGKGLHVVVPITRHMGWDEVKDFSRAVAQHVAGALPDRFTATMGPKHRRGKIFIDYLRNGRGASTIAAYSVRARPGLGVSVPLRWDEVPDTTGGAQWTIDTLHERLDRLKRDPWDGYDDTRQRITAQMRARLGTS
protein production: failed

MTQTNNPLHGITLETIITQLVEHYGWEELGARIKIRCFTEAPSIKSSLRFLRKTDWAREKVEYLYLKTNKLPLPAAKSIQAPAKEPSKKSAPKPNSKPTQTKVVTPTPAVEGQVNSHIWGKRDLEHHHHHH
protein production: not failed

MTQAKFVEGSILRHILVMSSTAAVGISALFVVDLLDIFFLSLLGEHELAAAVGYAGSISFFTTLIGIGLSIALGALVSRSIGAKDVELAKRLLLNSAVVTTLISVFVSIVVTTFIPELVTLVGASGHTAELAESYLYILVPSLPFICLAMALGGALRSVGDAKLSMMSTLAGGGVNAVLDPIFIFLFAMGIEGAALASVLARITVFVIAGRGVMVKHQLLGKFNRSDFKADLKPIFAIAGPAILTNIATPIGNAFVTRAIADFGDAYVAGWAVLGRLVPVTFGMIFALSGAIGPIVGQNFGAGRFDRVRESLTKAIQFCTLYVVVMSLLLFLLKSQIVSLFDMKGDSAALIEFFCSYIAVFFIFSGILFVANASFNNLGKAKYSTLFNVGKATLGTVPFVYVGAQLGGVYGVLIGQVIGSILFGVVGVWVAYRLVDKVVLTSTGHGVVSLATDADELMTDTVAPSATSPLSSSCAQMAQLTEEQEMEPVLPLIGQQDNSRR
protein production: failed

MSPTLSILIPVYKRDCRRLLEELYKQAEELSVGYEIILGDDCSGEPYTSQYIAYEQEGLCRLVSAEENMGAGRLRNRLAEEAQGEQLLILDSDTLPASPDFIERYLRHASGTTVVCGGFVYPPKSTNPLRQRYGAEVESRSAEERARKPHSGFISMAFMIPRKQMLATGFPPNMGMGYEDILFGERLRQAGIPILHIDNPVEHYHCDTAEGFLATTRSYLDNLYCHREELAELVSLLRAYNLLKRLHLMRMVAALWPLIRSSLEKQLTGAKPSLLLFSLYKLLYVASLSLVCAEKS
protein production: failed

— a protein production outcome set (Wang et al. 2014)
